{"source": "the nanobody polyreactivity screen of Harvey et al. (2022)"}
{"experiment": "yeast display, Sf9 membrane polyspecificity reagent, FACS + sequencing; frameworks hold sequencing errors", "in_short": "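Synthetic nanobody libraries on Saccharomyces cerevisiae BJ5465 were galactose-induced for 36–48 hours, stained 1 hour at 4 °C with 10% biotinylated, detergent-solubilized Sf9 membrane reagent and enriched on streptavidin microbeads. FACS then separated cells into low and high (top ~1%) gates by anti-HA (expression) and streptavidin (reagent binding) fluorescence. Genes were colony-PCR amplified, MiSeq 2 × 250 sequenced and CDR-length filtered. A clone's polyreactivity label is that of its gate of origin.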"}
{"sequence": "QVQLVESGGGLVQAGGSLRLSCAASGRTFQDYAMGWYRQAPGKERELVAVINSGGSTYYADSVKGRFTISRDNAKNTVYLQMNSLKPEDTAVYYCAKGYWFYPWYHGYYWGQGTQVTVSS", "polyreactivity (PSR sort gate)": "high polyreactivity"}
{"sequence": "QVQLVESGGGLVQAGGSLRLSCAASGSTFSRYAMGWYRQAPGKERELVAAISYSGDSTYYADSVKGRFTISRDYAKNTVYLQMNSLKPEDTAVYYCNVYSHYRGYYWGQGTQVTVSS", "polyreactivity (PSR sort gate)": "high polyreactivity"}
{"sequence": "QVQLVESGGGLVQAGGSLRLSCAASGITFRRYVMGWYRQAPGKERELVARISSDGSTSYADSVKGRFTISRNNAKNTVYLQMNSLKPEDTAVYYCAAVHQWYVRYSTGYNYWGQGTQVTVSS", "polyreactivity (PSR sort gate)": "high polyreactivity"}
{"sequence": "QVQLVESGGGLVQAGGSLRLSCAASGSIFSGNTMGWYRQAPGKERELVAAISGRGSNTYYADSVKGRFTISRDNAKNTVYLQMNSLKPEDTAVYYCAAPWVVRRTAYDYWGQGTQVTVSS", "polyreactivity (PSR sort gate)": "high polyreactivity"}
{"sequence": "QVQLVESGGGLLHAGGSLRLSCAASGRTFDHYAMGWYRQAPGKERELVAAISSRGSSTYYADSVKGRFTISRDNAKNTVYLQMNSLKPEDTAVYYCAAKYIRDYTSNPRGYWGHGTQVTVSS", "polyreactivity (PSR sort gate)": "high polyreactivity"}
{"sequence": "QVQLVESGGGLVQAGGSLRLICAASGSTFQDNAMGWYRQAPGKERELVASISSVDSTNYADSVKGRFTISRDNAQNTVYLQMNSLKPEDTAVYYCNAAHPYRRVGSFTYKYDYWGQGTQVTVSS", "polyreactivity (PSR sort gate)": "low polyreactivity"}
{"sequence": "QVQLQESGGGLVQAGGSLRPSCAASGNIFVPFKMGWYRMAPGKERELVASINRGSTTNYADSVKGRFTISRDNAKNTVYLQMISLKPEDTAVYYCAAIAYPDIPTYLDYDSDYFYWDQGTQVTVSS", "polyreactivity (PSR sort gate)": "high polyreactivity"}
{"sequence": "QVQLVESGGGLVQAGGSLRLSCAASGNIFKGHVMGSYRKAPGKERELVAAISRSGGYTYYAVSVKGRFTISRDNAKNTVYLQMNSLKPADTAVYYCAAGRRLVRVVGGDYYGRYVYWGQGTQVTLSS", "polyreactivity (PSR sort gate)": "high polyreactivity"}
{"sequence": "QVQLVESGGGLVQAGGSLRLTCAASGFIFCSYAMRWYRQAPGKERELVAAISFRGGSTFYADSVKGRFTISRDNAKNTVYLQMNSLKPEDTAVYYCNKAAYSIHSGLSYYHWGQGTQVTVSS", "polyreactivity (PSR sort gate)": "low polyreactivity"}
{"sequence": "QVQLVESGGGLVQAGGSLRLSCAASGFISPPYAMGWYRQAPGKERELVAAIRSSGGSTYYADSVKGRFTISRDNAKNTVYLQMNSLIPEDTAVYYCNADWIYISSYGWYSYDYWGQGTQVTVSS", "polyreactivity (PSR sort gate)": "high polyreactivity"}
{"sequence": "QVQLVESGGGLVQAGGSLRLSCADSGRIIQYNAMGWYRQAPGKERDLDAAISYRGGSTYYADSVKGRYTISRDNAKNTVYLQMNSLKPEDTAVYYCAVEYPVYYYVEYDYWGQGTQVTVSS", "polyreactivity (PSR sort gate)": "high polyreactivity"}
{"sequence": "QVQLVESGGGLVQAVGSLRLSCAPSGSTFPYYAMGWYRQAPGKERELVASIRKRGGGTYYADSVKGRFTISRDNAKNTVYLQMNSLKPEDTAVYYCAVRVYQFRYTGYDYWGQGTQVTVSS", "polyreactivity (PSR sort gate)": "high polyreactivity"}
{"sequence": "QVQLVESGGGLVQAGGSLRLSCADSGSIFQRYAVGWYRQAPGKEREVVAAFTASGGSTYYADSVKGRFTISRDNAKNTVYLQMNILKPEDTAVYYCATDSYWRQDLYRYEYWGQGTQVTVSS", "polyreactivity (PSR sort gate)": "high polyreactivity"}
{"sequence": "QVQLVESGGGLVQAGGSLRLSCAASGSIFIVYAMGWYRQAPGKERELVATISWSGGSTSYADSVKGRFTISRDNAKNTVYLQMNSLKPEDTAVYYCNTLVRITEYDSWGQGTQVTVSS", "polyreactivity (PSR sort gate)": "low polyreactivity"}
{"sequence": "QVQLVESGGGLGQAGGSLRLSCAASGFTFGGNGMGWYRPAPGKERELVASISWGGGSTYYADSVKGRFRISRDKAKNTVYLQMNSLKREDTAVYDCNADRYYWSSRPTSWFNYWGQGTQVTVSS", "polyreactivity (PSR sort gate)": "high polyreactivity"}
{"sequence": "QDQLVESGGGLVQAGGSLRLSCAASGRTFTGYTMGWYRQAPGKERELVASISSSGGRTYYADSVKGRFTISRDNAKNTVFLQMKSLKPEDTAVYYCAKRGAYGYGYYSYDYWGQGTQVTVSS", "polyreactivity (PSR sort gate)": "high polyreactivity"}
{"sequence": "QVQLVETGGGLVQAGGSLRLSCAASGFTFASYAMGWYRQAPGKERELVAAITWGTGTTSYADSVKGRFTISRDNAKNTVYLQMNSLKPEDTAVYYCATRYRQITYRRRYDYWGQGTQVTVSS", "polyreactivity (PSR sort gate)": "low polyreactivity"}
{"sequence": "QVQLVESGGGLVQARGSLRLSCAASGSIFSIYAMGWYRPAPGTERELVASITRSSGRTYYADSVKGRFTISRDNAKNTVYLQMISLKPEDTAVYYCAKDYIPLALDADDYWGQGTQVTVSS", "polyreactivity (PSR sort gate)": "low polyreactivity"}
{"sequence": "QVQLVESGGGLVQAGGSLRLSCAASGLIFYGNAMGWYRKAPGKERELVAAISWSGGNTSYADSVKGRFTISRDNAKNTVYVLMNSLKAEDTAVDYCNADSLPSLERYGYWGQGTQVTVSS", "polyreactivity (PSR sort gate)": "low polyreactivity"}
{"sequence": "QVQLVESGGVLVQAGGSLRLSCAASGSTFSWYAMGWYRQAPGKERELFAGITRSDGSTYYADSVKGRFTNSRDNAKNNVYLQMNSLKPEDTAVYYCAADDYIIRYGTNVDYWGQGTQVTVSS", "polyreactivity (PSR sort gate)": "low polyreactivity"}
{"sequence": "QVQLVESGGGLVQAGGSLRLSCAASGRIFYDYDMGWYRQAPGKERELVAAISYGGGTTYYADSVKGRFTISRDNAKNTVYLQMTSLKPEDTAVYYCAAEYASGSYDEYDYWGQGTQVTVSS", "polyreactivity (PSR sort gate)": "low polyreactivity"}
{"sequence": "QVQLVESGGGLVQAGGSLRLSCAASGSTFGGYAMGWSRQAPGKERELVARITRSGGRTYYADSVKGRFTISRDNAKNTVYLQMNSLKPEDTAVYYCNKQLLISRQIQYEYWGQGTQVTVSS", "polyreactivity (PSR sort gate)": "low polyreactivity"}
